Reference: patent US20210388079A1

Tests used:
[1] = biological target: NYESO1-001 (tetramer, row label of Figure 31) (human); experiment: flow cytometry, HLA-A*02/NYESO1-001 tetramer staining of TCR-RNA-electroporated CD8+ T-cells; mock cells 1.09%
[2] = biological target: HLA-A*02/SPINK2-001 tetramer (human); experiment: flow cytometry, HLA-A*02/SPINK2-001 tetramer staining of TCR-RNA-electroporated CD8+ T-cells; mock cells 0.97%

% of CD8+ T-cells in the tetramer-positive gate [1]: 0.96% | % of CD8+ T-cells in the tetramer-positive gate [2]: 30%
B1: TCR R49P2B7, alpha and beta chains expressed in human primary CD8+ T-cells by RNA electroporation (TCR, V domains shown)
V domain 1: AQSVTQLGSHVSVSEGALVLLRCNYSSSVPPYLFWYVQYPNQGLQLLLKYTTGATLVKGINGFEAEFKKSETSFHLTKPSAHMSDAAEYFCAVRIFGNEKLTFGTGTRLTIIP
V domain 2: DVKVTQSSRYLVKRTGEKVFLECVQDMDHENMFWYRQDPGLGLRLIYFSYDVKMKEKGDIPEGYSVSREKKERFSLILESASTNQTSMYLCASSLMGELTGELFFGEGSRLTVLE
